Patent US20210023171A1 (published 2021)
No end group written: not given here.

Key:
[1] = biological target: αvβ5 integrin (soluble / detergent-solubilized) (UniProt P06756 31-1048; P18084 24-799); assay: yeast display, flow cytometry
[2] = biological target: T1, αvβ3 integrin on cells (U87MG glioblastoma cells; K562-αvβ3 cells) (UniProt P06756 31-1048; P05106 27-788); assay: competition with ^125I-echistatin on U87MG cells (also express αvβ5, α5β1); unlabeled peptide
T1 construct: whole, on cells; also called cell surface αvβ3 integrin
T1 sequence (P06756 31-1048, chain 1 of 2): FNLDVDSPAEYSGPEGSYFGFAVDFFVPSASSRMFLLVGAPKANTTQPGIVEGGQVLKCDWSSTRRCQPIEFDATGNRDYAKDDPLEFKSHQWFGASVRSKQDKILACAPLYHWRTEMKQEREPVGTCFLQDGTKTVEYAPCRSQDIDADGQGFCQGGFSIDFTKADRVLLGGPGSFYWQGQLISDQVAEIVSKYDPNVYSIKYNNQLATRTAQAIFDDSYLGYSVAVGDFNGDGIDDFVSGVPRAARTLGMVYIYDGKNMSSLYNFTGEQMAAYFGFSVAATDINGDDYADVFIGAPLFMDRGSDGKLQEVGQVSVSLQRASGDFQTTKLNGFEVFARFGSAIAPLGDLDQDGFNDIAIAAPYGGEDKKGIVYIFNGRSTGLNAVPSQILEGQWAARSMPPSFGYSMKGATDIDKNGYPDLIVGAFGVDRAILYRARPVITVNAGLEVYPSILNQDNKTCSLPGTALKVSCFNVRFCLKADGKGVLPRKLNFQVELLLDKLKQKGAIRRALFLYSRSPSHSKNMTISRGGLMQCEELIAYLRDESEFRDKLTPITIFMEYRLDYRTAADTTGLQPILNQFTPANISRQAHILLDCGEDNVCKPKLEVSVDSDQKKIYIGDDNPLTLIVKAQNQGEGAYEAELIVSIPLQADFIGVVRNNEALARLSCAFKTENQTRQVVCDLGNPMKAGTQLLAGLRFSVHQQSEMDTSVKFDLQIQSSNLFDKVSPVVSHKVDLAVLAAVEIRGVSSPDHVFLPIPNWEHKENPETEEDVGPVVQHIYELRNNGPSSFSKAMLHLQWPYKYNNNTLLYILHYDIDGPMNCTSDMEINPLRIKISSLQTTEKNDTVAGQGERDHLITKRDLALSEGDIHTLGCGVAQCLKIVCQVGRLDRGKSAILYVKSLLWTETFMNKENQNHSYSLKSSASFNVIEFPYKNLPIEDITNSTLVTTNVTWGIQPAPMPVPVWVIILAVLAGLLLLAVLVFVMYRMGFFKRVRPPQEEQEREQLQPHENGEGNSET
T1 sequence (P05106 27-788, chain 2 of 2): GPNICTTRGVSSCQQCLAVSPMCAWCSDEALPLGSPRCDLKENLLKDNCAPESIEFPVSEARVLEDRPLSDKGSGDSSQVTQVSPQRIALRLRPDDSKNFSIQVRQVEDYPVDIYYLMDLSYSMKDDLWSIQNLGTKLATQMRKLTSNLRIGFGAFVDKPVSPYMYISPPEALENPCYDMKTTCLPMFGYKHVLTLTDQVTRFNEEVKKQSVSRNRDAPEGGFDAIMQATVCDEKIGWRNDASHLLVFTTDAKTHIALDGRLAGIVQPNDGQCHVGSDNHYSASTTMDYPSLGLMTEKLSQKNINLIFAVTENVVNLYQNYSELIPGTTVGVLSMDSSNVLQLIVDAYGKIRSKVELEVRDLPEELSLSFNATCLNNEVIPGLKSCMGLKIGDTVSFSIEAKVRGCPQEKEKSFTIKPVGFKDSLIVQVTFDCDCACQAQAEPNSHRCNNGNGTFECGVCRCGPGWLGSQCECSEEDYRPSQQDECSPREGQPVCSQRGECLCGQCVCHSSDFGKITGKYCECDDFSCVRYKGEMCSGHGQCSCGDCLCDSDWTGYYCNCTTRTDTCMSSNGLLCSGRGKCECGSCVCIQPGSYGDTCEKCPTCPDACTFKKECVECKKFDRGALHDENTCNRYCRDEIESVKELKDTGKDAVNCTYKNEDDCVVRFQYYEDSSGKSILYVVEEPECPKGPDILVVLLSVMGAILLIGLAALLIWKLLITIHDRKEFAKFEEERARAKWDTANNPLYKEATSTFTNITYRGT

[3] = biological target: T1, αvβ3 integrin on cells (U87MG …); assay: competition with ^125I-echistatin on U87MG cells; Cy5.5-labeled peptide
[4] = biological target: T2, αvβ3 integrin (soluble / detergent-solubilized) (UniProt P06756 31-1048; P05106 27-788); assay: yeast display, flow cytometry, 50 nM integrin, gross estimate
T2 construct: also called integrin αvβ3; soluble αvβ3 integrin
T2 sequence (P06756 31-1048, chain 1 of 2): as the sequence (P06756 31-1048, chain 1 of 2) above
T2 sequence (P05106 27-788, chain 2 of 2): as the sequence (P05106 27-788, chain 2 of 2) above

[5] = biological target: T1, αvβ3 integrin on cells (U87MG …); assay: direct equilibrium titration on K562-αvβ3 cells, anti-His flow cytometry
[6] = biological target: T1, αvβ3 integrin on cells (U87MG …); assay: cell-based or functional assay
[7] = biological target: T3, αiibβ3 integrin on K562 cells stably transfected with αiibβ3 (UniProt P08514 32-1039; P05106 27-788); assay: titration on K562-αiibβ3 cells up to 5 µM, not saturated
T3 construct: whole, on cells; also called K562-αiibβ3; K562-αiiβ3

[8] = biological target: T1, αvβ3 integrin on cells (U87MG …); assay: direct equilibrium titration on U87MG cells, anti-His flow cytometry
[9] = biological target: T1, αvβ3 integrin on cells (U87MG …); assay: competing off ^125I-echistatin, U87MG cells

αvβ5 integrin (soluble / detergent-solubilized), sequence (P06756 31-1048, chain 1 of 2): as the sequence (P06756 31-1048, chain 1 of 2) above
αvβ5 integrin (soluble / detergent-solubilized), sequence (P18084 24-799, chain 2 of 2): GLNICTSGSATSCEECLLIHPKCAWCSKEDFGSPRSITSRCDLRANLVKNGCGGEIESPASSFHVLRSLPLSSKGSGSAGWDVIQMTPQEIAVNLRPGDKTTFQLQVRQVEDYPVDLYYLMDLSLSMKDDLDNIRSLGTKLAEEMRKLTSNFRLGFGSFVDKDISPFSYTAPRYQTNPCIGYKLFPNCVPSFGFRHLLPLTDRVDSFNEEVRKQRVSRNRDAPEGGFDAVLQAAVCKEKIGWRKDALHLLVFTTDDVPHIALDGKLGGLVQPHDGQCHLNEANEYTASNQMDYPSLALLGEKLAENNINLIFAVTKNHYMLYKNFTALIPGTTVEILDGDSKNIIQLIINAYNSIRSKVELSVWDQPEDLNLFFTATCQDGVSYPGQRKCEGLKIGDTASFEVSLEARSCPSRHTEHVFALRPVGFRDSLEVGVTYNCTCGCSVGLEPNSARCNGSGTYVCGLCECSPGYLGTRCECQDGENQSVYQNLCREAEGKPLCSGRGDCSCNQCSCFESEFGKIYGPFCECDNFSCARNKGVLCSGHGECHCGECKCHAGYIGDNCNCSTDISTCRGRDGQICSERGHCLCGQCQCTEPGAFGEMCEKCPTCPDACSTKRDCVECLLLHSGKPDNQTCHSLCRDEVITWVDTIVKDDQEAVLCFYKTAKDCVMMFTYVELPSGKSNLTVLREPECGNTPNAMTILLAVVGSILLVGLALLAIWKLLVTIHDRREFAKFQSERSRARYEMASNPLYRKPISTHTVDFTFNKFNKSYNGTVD

B1: AgRP 7C loop 1 clone 1-2 (yeast-displayed) (peptide)
chain: GCRPLGDAGCLGQQVPCCDPAATCYCYGRGDNDLRCYCR
modifications: ends and bridges not checked; cysteine pairing not given here
[1]
  binding result: no binding (tested: 50 nM)

B2: AgRP 7C loop 1 clone 1-6 (yeast-displayed) (peptide)
chain: GCDLYGSHDCLGQQVPCCDPAATCYCYGRGDNDLRCYCR
modifications: ends and bridges not checked; cysteine pairing not given here
[1]
  binding result: no binding (tested: 50 nM)

B3: Loop-grafted FN-RGD (synthetic, soluble) (peptide)
chain: GCVTGRGDSPASSCSQDSDCLAGCVCGPNGFCG
notes: also called FN-RGD2; RGD-EETI #3
[2]
  IC50: 370 nM

B4: Miniprotein 2.5F (synthetic, soluble) (peptide)
chain: GCPRPRGDNPPLTCSQDSDCLAGCVCGPNGFCG
notes: also called knottin peptide 2.5F; RGD-miniprotein 2.5F
[2]
  IC50: 26 nM

B5: AgRP 7C loop 1 clone 1-1 (yeast-displayed) (peptide)
chain: GCASGSGDPCLGQQVPCCDPAATCYCYGRGDNDLRCYCR
modifications: ends and bridges not checked; cysteine pairing not given here
[1]
  binding result: no binding (tested: 50 nM)

B6: AgRP 7C loop 3 clone 3-4 (yeast-displayed) (peptide)
chain: GCVRLHESCLGQQVPCCQGREQSCYCYGRGDNDLRCYCR
[1]
  binding result: no binding (tested: 50 nM)

B7: Cy5.5-labeled Miniprotein 1.5B (peptide)
chain: {Cy5.5}-GCTIGRGDWAPSECSQDSDCLAGCVCGPNGFCG
modifications: cysteine pairing not given here
[3]
  IC50: 6.4 nM

B8: 1.5B (yeast-displayed EETI-based variant) (peptide)
chain: GCTIGRGDWAPSECKQDSDCLAGCVCGPNGFCG
[4]
  Kd: ~50 nM

B9: 2.5A (yeast-displayed EETI-based variant) (peptide)
chain: GCHVGRGDWAPEECKQDSDCQAGCVCGPNGFCG
[4]
  Kd: ~50 nM

B10: Miniprotein 1.5B (synthetic, soluble) (peptide)
chain: GCTIGRGDWAPSECSQDSDCLAGCVCGPNGFCG
notes: also called RGD-miniprotein 1.5B
[2]
  IC50: 13 nM

B11: AgRP 7C loop 3 clone 3-3 (yeast-displayed) (peptide)
chain: GCVRLHESCLGQQVPCCSGLGNRCYCYGRGDNDLRCYCR
modifications: ends and bridges not checked; cysteine pairing not given here
[1]
  binding result: no binding (tested: 50 nM)

B12: AgRP 7C loop 1 clone 1-3 (yeast-displayed) (peptide)
chain: GCLAGLSGPCLGQQVPCCDPAATCYCYGRGDNDLRCYCR
modifications: ends and bridges not checked; cysteine pairing not given here
[1]
  binding result: no binding (tested: 50 nM)

B13: recombinant engineered AgRP peptide 6C (FLAG and hexahistidine tagged) (peptide)
chain: DYKDDDDKGCVRLHESCLGQQVPCCDPAATCYCTGRGDEKLRCYCRHHHHHH
[5]
  Kd: 15 nM
[6]
  adhesion (IC50; nM) of K562-αvβ3 cells to vitronectin-coated wells: 650 nM
[7]
  Kd: > 100 nM
[8]
  Kd: 13 nM

B14: recombinant engineered AgRP peptide 7J (FLAG and hexahistidine tagged) (peptide)
chain: DYKDDDDKGCVRLHESCLGQQVPCCDPAATCYCEGRGDRDMKCYCRHHHHHH
notes: also called 7J (6B); 6B
[5]
  Kd: 16 nM
[6]
  adhesion (IC50; nM) of K562-αvβ3 cells to vitronectin-coated wells: 200 nM
[7]
  Kd: > 100 nM
[8]
  Kd: 8.3 nM

B15: recombinant engineered AgRP peptide 7E (FLAG and hexahistidine tagged) (peptide)
chain: DYKDDDDKGCVRLHESCLGQQVPCCDPAATCYCVGRGDDNLKCYCRHHHHHH
[5]
  Kd: 1.6 nM
[6]
  adhesion (IC50; nM) of K562-αvβ3 cells to vitronectin-coated wells: 9.9 nM
[7]
  Kd: > 100 nM
[8]
  Kd: 1.4 nM

B16: Cy5.5-labeled echistatin (ligand)
chain: QCESGPCCRNCKFLKEGTICKRARGDDMDDYCNGKTCDCPRNPHKGPAT
modifications: ends and bridges not checked; also: Cy5.5-labeled, site not given here
[3]
  IC50: 2.6 nM

B17: Cy5.5-labeled loop-grafted FN-RGD (peptide)
chain: {Cy5.5}-GCVTGRGDSPASSCSQDSDCLAGCVCGPNGFCG
modifications: cysteine pairing not given here
notes: also called Cy5.5-labeled FN-RGD
[3]
  IC50: 33.9 nM

B18: AgRP 7C loop 1 clone 1-5 (yeast-displayed) (peptide)
chain: GCIASGLFGCLGQQVPCCDPAATCYCYGRGDNDLRCYCR
modifications: ends and bridges not checked; cysteine pairing not given here
[1]
  binding result: no binding (tested: 50 nM)

B19: AgRP 7C loop 1 clone 1-4 (yeast-displayed) (peptide)
chain: GCRSASVGGCLGQQVPCCDPAATCYCYGRGDNDLRCYCR
modifications: ends and bridges not checked; cysteine pairing not given here
[1]
  binding result: no binding (tested: 50 nM)

B20: AgRP 7C loop 3 clone 3-2 (yeast-displayed) (peptide)
chain: GCVRLHESCLGQQVPCCSRSDAHCYCYGRGDNDLRCYCR
modifications: ends and bridges not checked; cysteine pairing not given here
[1]
  binding result: no binding (tested: 50 nM)

B21: AgRP 7C loop 3 clone 3-6 (yeast-displayed) (peptide)
chain: GCVRLHESCLGQQVPCCTSKQHHCYCYGRGDNDLRCYCR
[1]
  binding result: no binding (tested: 50 nM)

B22: AgRP 7C loop 3 clone 3-5 (yeast-displayed) (peptide)
chain: GCVRLHESCLGQQVPCCTVTNSRCYCYGRGDNDLRCYCR
[1]
  binding result: no binding (tested: 50 nM)

B23: Cy5.5-labeled Miniprotein 2.5F (peptide)
chain: {Cy5.5}-GCPRPRGDNPPLTCSQDSDCLAGCVCGPNGFCG
modifications: cysteine pairing not given here
[3]
  IC50: 3.4 nM

B24: 6E (synthesized Mini-RGD-AgRP peptide) (peptide)
chain: GCVRLHESCLGQQVPCCDPAATCYCVERGDGNRRCYCR
modifications: ends and bridges not checked; cysteine pairing not given here
[9]
  IC50: 130 nM

B25: AgRP 7C loop 2 clone 2-1 (yeast-displayed) (peptide)
chain: GCVRLHESCGGSVGVECCDPAATCYCYGRGDNDLRCYCR
modifications: ends and bridges not checked; cysteine pairing not given here
[1]
  binding result: no binding (tested: 50 nM)

B26: AgRP 7C loop 2 clone 2-2 (yeast-displayed) (peptide)
chain: GCVRLHESCDPRVGVRCCDPAATCYCYGRGDNDLRCYCR
modifications: ends and bridges not checked; cysteine pairing not given here
[1]
  binding result: no binding (tested: 50 nM)

B27: AgRP 7C loop 2 clone 2-5 (yeast-displayed) (peptide)
chain: GCVRLHESCGSWGTLACCDPAATCYCYGRGDNDLRCYCR
modifications: ends and bridges not checked; cysteine pairing not given here
[1]
  binding result: no binding (tested: 50 nM)

B28: 6F (synthesized Mini-RGD-AgRP peptide) (peptide)
chain: GCVRLHESCLGQQVPCCDPAATCYCESRGDVVRKCYCR
modifications: ends and bridges not checked; cysteine pairing not given here
[9]
  IC50: 410 nM

B29: Cy5.5-labeled Miniprotein 2.5D (peptide)
chain: {Cy5.5}-GCPQGRGDWAPTSCSQDSDCRAGCVCGPNGFCG
modifications: cysteine pairing not given here
[3]
  IC50: 4.2 nM

B30: 3F (synthesized Mini-RGD-AgRP peptide) (peptide)
chain: GCVRLHESCLGQQVPCCDPAATCYCQYRGDGMKHCYCR
modifications: ends and bridges not checked; cysteine pairing not given here
[9]
  IC50: 880 nM

B31: AgRP 7C loop 3 clone 3-1 (yeast-displayed) (peptide)
chain: GCVRLHESCLGQQVPCCGTPKPECYCYGRGDNDLRCYCR
modifications: ends and bridges not checked; cysteine pairing not given here
[1]
  binding result: no binding (tested: 50 nM)

B32: AgRP 7C loop 2 clone 2-6 (yeast-displayed) (peptide)
chain: GCVRLHESCWGSILGHCCDPAATCYCYGRGDNDLRCYCR
modifications: ends and bridges not checked; cysteine pairing not given here
[1]
  binding result: no binding (tested: 50 nM)

B33: AgRP 7C loop 2 clone 2-3 (yeast-displayed) (peptide)
chain: GCVRLHESCADTLMAACCDPAATCYCYGRGDNDLRCYCR
modifications: ends and bridges not checked; cysteine pairing not given here
[1]
  binding result: no binding (tested: 50 nM)

B34: AgRP 7C loop 2 clone 2-4 (yeast-displayed) (peptide)
chain: GCVRLHESCEWGRGGDCCDPAATCYCYGRGDNDLRCYCR
modifications: ends and bridges not checked; cysteine pairing not given here
[1]
  binding result: no binding (tested: 50 nM)
